The record followed here is the nanobody polyreactivity screen of Harvey et al. (2022).

This data set in a line: yeast display, Sf9 membrane polyspecificity reagent, FACS + sequencing; frameworks hold sequencing errors. The procedure, abridged:
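Using colony PCR, genes from sorted yeast display clones were amplified, then sequenced on MiSeq at 2 × 250 and filtered by CDR length. The clones had been stained with 10% biotinylated, detergent-solubilized Sf9 membrane reagent for 1 hour at 4 °C and sorted by FACS into low and high (top ~1%) gates on anti-HA and streptavidin fluorescence. Polyreactivity labels come from the gate of origin.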
With “QVQLVESGGGLVQAGGSLRLSCAAYGRTFRIYAMGWYRQAPGKERELVATITWRAGSTYYADSVKGRFTISRDNAKYTVYLQMNSLKPEDTAVYYCAADVSAYSGGYWLDYWGQGTQVTVSS”, the “polyreactivity (PSR sort gate)” value is on record as “high polyreactivity”.

Turning to “QVQLVESGGGLVQAGGSLRLSCAAYGRTFRKNAMGWYRQAPVKERELVASMSKNGAGTYYADSVKGRFTISRDTAKNTVYLQMNSLKPEDTAVYYCAKLPNLPGDYWGQGTQVTVSS”, the “polyreactivity (PSR sort gate)” value is “low polyreactivity”. Take “QVQLVESGGGLVQAGGSLRLSCAAYGRTFWPNAMGWYRQAPGKERELVAAFSRRSGSTYYADSVKGRFTISRDNAKNTVYLQMNSLKPEDTAVYYCAAKYRAHGNHSWGQGTQVTVSS”: the “polyreactivity (PSR sort gate)” value is given as “high polyreactivity”. On to “QVQLVESGGGLVQAGGSLRLSCAAYGSIFFGNVMGWYRQAPGKARELVAVISWSGGTTYYADSVKGRFTISRDNAKNTVYLQMNSLKPEDTAVYYCNARYLRRGDYWGQGTQVTVSS”, for which the “polyreactivity (PSR sort gate)” value is “low polyreactivity”. To “QVQLVESGGGLVQAGGSLRLSCAAYGSIFLYNALGGYIQAPGKEMELVADITSAGRTYYADSVKGRFTISRDNAKNTVYLQMNSLKPEDTAVYYCNKDYQYHFSWYGYWGQGTQVTVSS” belongs “low polyreactivity”.

For “QVQLVESGGGLVQAGGSLRLSCAAYGSIFRLYAIGWSRQAPGKDRELVAAISSVGRTYYAYSVKGRFTISRDNAKNTVYLQMNSLKPEDSAVYYCAARPYKFARYDYWGQGTQVTVSS”, the “polyreactivity (PSR sort gate)” value is reported as “high polyreactivity”. “QVQLVESGGGLVQAGGSLRLSCAAYGSIFRSYAMGWYRQAPGKERELVAAISSRYGSTYYADSVKGRFTISRDNAKNTVYLQMNSLKPEDTAVYYCGSQHRHSYGYWGQGTQVTVSS”: the “polyreactivity (PSR sort gate)” value was “high polyreactivity”. In the case of “QVQLVESGGGLVQAGGSLRLSCAAYGSIFSGYTMGCYRQAPGKERELVAAITQRGTRTYYADSVKGRFTISRDNAKNTVYLQMNSLKPEDTAVYYCAAVRSYYSNRGYDYWGQGTQVTVSS”, the “polyreactivity (PSR sort gate)” value was “high polyreactivity”. To “QVQLVESGGGLVQAGGSLRLSCAAYGSIFTRNAMGWYRQAPGKERELVATITSNDGSTNYADSVKGRFTISRDNAKNTVYLQMISLKPEDTAVYYCNRSYGVYSEFDYWGQGTQVTVSS” belongs “low polyreactivity”; to “QVQLVESGGGLVQAGGSLRLSCAAYGSILARYAMGWYRQAPGKERELVAAISYNGGSTYYADSVKGRFTISRDNAKNTVYLQMNSLKPEDTAVYYCAKAYDTTLTYNFWGQGTQVTVSS”, “low polyreactivity”; to “QVQLVESGGGLVQAGGSLRLSCAAYGSNLTWNDMGWYRQAPGKERELVAAIDVNDGSTYYADSVKGRFTISRDNAKNTVYLQMNRLKPEDTAVYYCAEPTDYTWLDSTLADDYWGQGTQVTVSS”, “low polyreactivity”. For the sequence “QVQLVESGGGLVQAGGSLRLSCAAYGSTFHYYSMGWYRQAPGKERELVAAISSSGVSTYYADSVKGRFTISRDYAKNTVYLQMNSLKPEDTAVYYCNRASVFHYRWYYYWGLGTQVTVSS”, the “polyreactivity (PSR sort gate)” value is “high polyreactivity”. To “QVQLVESGGGLVQAGGSLRLSCAAYGSTFYAYAMGWYRQAPGKERELVAAIDSGGSTYYADSVKGRFTISRDNAKNTVYLQMNSLKPEDTAVYYCAVRHRYTRAYWGRDYWGQGTQVTVSS” belongs “low polyreactivity”; to “QVQLVESGGGLVQAGGSLRLSCAAYGSTFYHKAMGWYRQAPGKERELVARITRGGSTDYADSVKGRFTISRDNAKNTVYLQMNSRKPEDTAVYYCAAAIGHFERFYWGQGTQVTVSS”, “low polyreactivity”; to “QVQLVESGGGLVQAGGSLRLSCAAYGSTFYVYAMGWYRQAPGKESELVAAITSAGSTNYADSVKGRFTISRDNAKYTVYLQMNSLKPEDTAVYYCAVYFDTFYGHMYYWGQCTQVTVSS”, “low polyreactivity”. To “QVQLVESGGGLVQAGGSLRLSCAAYSYVMGGYRQAPGKERELVAAISQSGGSTYYADSVKGRFTISRDNAKNTVYLQMNTLKPEDTAVYYCAASYQVRYDYWGQGTQVTVSS” belongs “high polyreactivity”. The entry for “QVQLVESGGGLVQAGGSLRLSCAAYSYVMGWYRQAPGKERELVAAISQSGGSTYYADSVKGRFTISRDNAKNTVYLQMNSLKPEDTAVYYCAARREPYQYNQYYSWGQGTQVTVSS” is “high polyreactivity”. Turning to “QVQLVESGGGLVQAGGSLRLSCACSGSTFRWYTMGWYRQAPGKECELVAAISISGTSTYYADSVNGRFTISRDNAKNTVYLQMNSLTPEDTAVYYCAADPPSRWGDYWGQGTQVTVSS”, the “polyreactivity (PSR sort gate)” value was “high polyreactivity”. “QVQLVESGGGLVQAGGSLRLSCADSGFIFSHNVMGWYRQAPGKERELVAAISASGGSTYYADSVKGRFTISRDNAKNTVYLQMNSLKPEDTAVYYCAKVTWGTVWYRSPSEYDYWGQGTQVTVSS”: the “polyreactivity (PSR sort gate)” value is reported as “low polyreactivity”.

Turning to “QVQLVESGGGLVQAGGSLRLSCADSGFIFTPYTMGWYRQAPGKERELVAAITDGSSTYYADSVKGRFTISRDNAKYTVYLQINSLKPEDTAVYYCNADGKPPYISWLYDYWGQGTQVTVSS”, the “polyreactivity (PSR sort gate)” value was “low polyreactivity”.

Turning to “QVQLVESGGGLVQAGGSLRLSCADSGFISDWYAMGWYRQAPGKERELVATIDWIGGSTYADSVKGRFTISRDNAKNTVYLQMNSMKPEDTAVYYCNAYAFDSVREEDYWGQGTQVTVSS”, the “polyreactivity (PSR sort gate)” value is “low polyreactivity”. As for “QVQLVESGGGLVQAGGSLRLSCADSGFTFSWYTMGWYRQAPGKERELVAAITVSGGSTYYADSVKGRFTISRDYAKNTVYLQMNSLKPEDTAVYYCNAQDPFTYYSSSPTYDYWGQGTQVTVSS”, the “polyreactivity (PSR sort gate)” value is “low polyreactivity”.

Turning to “QVQLVESGGGLVQAGGSLRLSCADSGFTFYTYTMGWYRPAPGKERELVAVISRSGGSTYYADSVKGRFTISRDNAKNTVYLQMNSVKPEDTAVYYCNAGYWRFIDSYDYWGQGTQVTVSS”, the “polyreactivity (PSR sort gate)” value is “high polyreactivity”.

In the case of “QVQLVESGGGLVQAGGSLRLSCADSGGTFGYYVMGWNRQAPGKERELVAAITSGGSTKYADSVKGRFTISRDNAKNTVYLQMNSLKPEDTAVYYCAADYPYYPFSSIYDYWGQGTQVTVSS”, the “polyreactivity (PSR sort gate)” value is “low polyreactivity”. To “QVQLVESGGGLVQAGGSLRLSCADSGIIFAYYAMGWYRQAPGKERELVAAITGGGVRTYYADSVKGRFTISRDNAKNTVYLQMNSLKPEDTAVYDCIATGSTASGRVNYWGQGTQVTVSS” belongs “high polyreactivity”; to “QVQLVESGGGLVQAGGSLRLSCADSGIIFAYYDMGWYRQAPGKERELVASISSTGGSTYYADSVKGRFTISSDNAKNTVYLQMNSLKPEDTAVYYCAVDGLPPKDALHLYYYWGQGTQVTVSS”, “low polyreactivity”; to “QVQLVESGGGLVQAGGSLRLSCADSGIIFRYYSMGWYRQAPGKESEFVAAITGSSGSTYADSVKGRFTISRDNAKNTVYLQMNSLKPEDTAVYYCNADSYSIWVYGEYDYWGLGTQVTVSS”, “high polyreactivity”.

As for “QVQLVESGGGLVQAGGSLRLSCADSGIIFWRYAMGWYRQAPGKERELVATITSGGSTDYADSVKGRFTISRDNAKNTVYLQMNSLKPEDTAVYYCAALGYATGYWRYYYWGQGTQVTVSS”, the “polyreactivity (PSR sort gate)” value is given as “low polyreactivity”. With “QVQLVESGGGLVQAGGSLRLSCADSGITFAPYAMGWSRQAPGKERELVATITWSGGSTYYADSVKGRFTISRDNAKNTVYLQMNSLKPEDTAVYYCAAYNDTVPSAAHIYESWGQGTQVTVSS”, the “polyreactivity (PSR sort gate)” value is “low polyreactivity”. The entry for “QVQLVESGGGLVQAGGSLRLSCADSGITFGVYAMGWYRQAPGKERELVAAISRRGASTYYADSVKGRFTISRDNAKNTVYLQMNSLKPEDTAVYYCAAYLARRQYDYWGQGTQVTVSS” is “high polyreactivity”; for “QVQLVESGGGLVQAGGSLRLSCADSGITFSDYAMGWYRQAPGKERELVAAISARGGSTYYADSVKGRFTISRDNAKNTVYLQMNSLKPEDTAVYYCAADKRTPYYSRAGMDYWGQGTQVTVSS” it is “low polyreactivity”; for “QVQLVESGGGLVQAGGSLRLSCADSGLIFGRNAMGWYRQAPGKERELVAAITSGGSTYYADSVKGRFTISRDNAKNTVYLQRNSLKPEDTAVYYCAADVVDLYLLDYWGQGTQVTVSS” it is “low polyreactivity”. In the case of “QVQLVESGGGLVQAGGSLRLSCADSGLIFKYYAMGWYRQAPGKERELVAVITSSGGSTYYADSVKGRFTISRDNAKNTVYLQMNSLKPEDTAVYYCAARRVRWPYDYWGQGTQVTVSS”, the “polyreactivity (PSR sort gate)” value is on record as “high polyreactivity”. With “QVQLVESGGGLVQAGGSLRLSCADSGLIFWAYAMGWYRQEPGTERELVAAINWRGGSTYYADSVKGRFTISRDTAKNTVYLQMNSLKPEDTAVYYCAADSYYDEYDYWGQGTQVTVSS”, the “polyreactivity (PSR sort gate)” value is given as “low polyreactivity”. With “QVQLVESGGGLVQAGGSLRLSCADSGLTFGSNGMGWYRQAPGKERELVAAISRGGSTSYAVSVKGRFTISRDNAKNTVYLQMNSLKPEDTAVYYCAARSYRYSYRYRAFDYWGQGSQVTVSS”, the “polyreactivity (PSR sort gate)” value is given as “high polyreactivity”. Consider “QVQLVESGGGLVQAGGSLRLSCADSGLTFWAYAMGWYRQAPGKARELVAGISSGVSTYYADSVKGRFTISRDNAKNTFYLQMNSLKPEDTEVYYCAAYVYTWYYYDVGYWGQGTQVTVSS”, for which the “polyreactivity (PSR sort gate)” value is reported as “high polyreactivity”. To “QVQLVESGGGLVQAGGSLRLSCADSGQNAMGWYRQAPGKERELVAAISRGGDSTYYADSVKGRFTISRDNAKNSVYLQMNSLKPEDTAVYYCAASYYRRYGYNYWGQGTQVTVSS” belongs “high polyreactivity”; to “QVQLVESGGGLVQAGGSLRLSCADSGRHFSFNMGWYRQAPGKERELVAAISRRGGSTYYADSVKGRFTISRDNAKNTVYLQMNSLKPEYTAVYYCAVIPRQTYSGGGYDYWGQGTQVTVSS”, “high polyreactivity”; to “QVQLVESGGGLVQAGGSLRLSCADSGRIFDFNAMGWYRQAPGKERELVASIDWSGGNTYYADSVKGRFTISRDNAKNTVYVQMNSLKPEDTAVYYCNRDFWGVWEYDYWGQGTQVTVSS”, “low polyreactivity”. Take “QVQLVESGGGLVQAGGSLRLSCADSGRIFFKYAMGWYRQAPGKERELVASISRRGGSTTYADSVKGRFTISRDNAKNTVYLQMNSLKPEDTAVYYCNTVSWWGRNYQDEYYYWGQGTQVTVSS”: the “polyreactivity (PSR sort gate)” value is listed as “high polyreactivity”. To “QVQLVESGGGLVQAGGSLRLSCADSGRIFGPYAMGWYRQAPGKERELVAAISGGGRTDYADSVKGRFTISRDNAKNTVYLQMNSLKPEDTAVYYCNADYTYWNGWFATRDYWGQGTQVTVSS” belongs “low polyreactivity”.
